The record followed here is article PMC9002611.

The test addresses Strep-tagged HypC_(H51A) (E. coli) (UniProt P0AAM3). The test can be described thus: pull-down; single-step Strep-tactin affinity enrichment of the Strep-tagged chaperone from extracts of anaerobically grown SHH228 cells co-producing HypD; elution fractions (10 ug protein) on SDS-PAGE, Coomassie stain, densitometry (ImageQuant TL); apparent stoichiometries.

B1: HypD (untagged) (natural protein)
chain: MRFVDEYRAPEQVMQLIEHLRERASHLSYTAERPLRIMEVCGGHTHAIFKFGLDQLLPENVEFIHGPGCPVCVLPMGRIDTCVEIASHPEVIFCTFGDAMRVPGKQGSLLQAKARGADVRIVYSPMDALKLAQENPTRKVVFFGLGFETTMPTTAITLQQAKARDVQNFYFFCQHITLIPTLRSLLEQPDNGIDAFLAPGHVSMVIGTDAYNFIASDFHRPLVVAGFEPLDLLQGVVMLVQQKIAAHSKVENQYRRVVPDAGNLLAQQAIADVFCVNGDSEWRGLGVIESSGVHLTPDYQRFDAEAHFRPAPQQVCDDPRARCGEVLTGKCKPHQCPLFGNTCNPQTAFGALMVSSEGACAAWYQYRQQESEA
As to B1, the apparent stoichiometry with HypD, percent lower than for the native chaperone was determined as 85 % lower.
